Data from patent publication US20020115184.

Legend:
[1] = target: T1, immature TasA protein (pro-TasA), 34 kDa
T1 chain: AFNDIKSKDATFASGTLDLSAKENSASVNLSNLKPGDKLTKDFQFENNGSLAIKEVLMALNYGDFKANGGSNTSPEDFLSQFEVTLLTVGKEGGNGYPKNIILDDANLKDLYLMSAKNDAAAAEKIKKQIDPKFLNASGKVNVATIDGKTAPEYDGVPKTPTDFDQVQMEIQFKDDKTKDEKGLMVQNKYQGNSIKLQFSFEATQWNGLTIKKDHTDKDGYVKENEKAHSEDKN

B. subtilis YqxM protein = target: T2, B. subtilis YqxM protein
T2 chain: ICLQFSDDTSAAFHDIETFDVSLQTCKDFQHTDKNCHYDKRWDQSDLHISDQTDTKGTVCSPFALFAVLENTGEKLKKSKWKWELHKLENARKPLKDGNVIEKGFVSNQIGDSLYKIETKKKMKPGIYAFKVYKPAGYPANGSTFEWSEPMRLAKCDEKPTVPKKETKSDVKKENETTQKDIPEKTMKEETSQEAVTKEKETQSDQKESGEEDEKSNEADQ

B1: B. subtilis SipW protein (signal peptidase) (protein)
chain: MKLISNILYVIIFTLIIVLTLVVISTRSSGGEPAVFGYTLKSVLSGSMEPEFNTGSLILVKEITDVKELQKGDVITFMQDANTAVTHRIVDITKQGDHLLFKTKGDNNAAADSAPVSDENVRAQYTGFQLPYAGYMLHFASQPIGTAVLLIVPGVMLLVYAFVTISSAIREIERKTKALETDTKDSTMST
Western blot for mature TasA in a strain where the neo promoter drives sipW and TasA and YqxM is disrupted [1]: A band corresponding to mature TasA was detected in extracts of spores and in both the culture supernatants and lysates of sporangia and vegetative cells. No protein of larger molecular weight that could correspond to immature TasA was detected. | Western blot of TasA size in sipW deletion strains (34 kDa immature against 31 kDa mature) [1]: a 34 kDa band was detected in both sporangial lysates and vegetative cells | Western blot of YqxM in concentrated E. coli culture supernatants (B. subtilis YqxM protein): when both YqxM and SipW were produced, YqxM was abundant in the culture supernatant and migrated as a smaller 31 kD species | YqxM associated with the spore, with sipW deleted or under pSpac control (B. subtilis YqxM protein): deletion of sipW resulted in no measurable amount of YqxM associated with the spore
